The results in this text go back to US20180326022A1, “COMPOSITIONS AND METHODS FOR IMPROVING HEART FUNCTION AND TREATING HEART FAILURE” (The Trustees of the University of Pennsylvania, priority 2017, published 2018).

The assay has as its target detyrosinated microtubules (rat cardiomyocytes) (rat). Nature of the assay: cell-based or functional assay.

Turning to “human tubulin tyrosine ligase (TTL) (from UniProt Q8NG68 1-377)”, the Detyr (% cell area), immunofluorescence, TTL overexpressing cells (null: 43.9) was determined as 12.9 % cell area.
